Measured values published in publication PMC3020710 (The Journal of Biological Chemistry, 2010).
Where two headings read alike, the source gives them in different places.

B1: His-Sox2 (full length) (natural protein)
chain: not shown
B2: His-Sox2 aa 1-240 (domain or fragment)
chain: not shown

How the values were obtained:
[1] = target: T1, GST-Sall1 (full length) (mouse, UniProt Q9ER74 1-1322); test: pull-down
T1 sequence (looked up): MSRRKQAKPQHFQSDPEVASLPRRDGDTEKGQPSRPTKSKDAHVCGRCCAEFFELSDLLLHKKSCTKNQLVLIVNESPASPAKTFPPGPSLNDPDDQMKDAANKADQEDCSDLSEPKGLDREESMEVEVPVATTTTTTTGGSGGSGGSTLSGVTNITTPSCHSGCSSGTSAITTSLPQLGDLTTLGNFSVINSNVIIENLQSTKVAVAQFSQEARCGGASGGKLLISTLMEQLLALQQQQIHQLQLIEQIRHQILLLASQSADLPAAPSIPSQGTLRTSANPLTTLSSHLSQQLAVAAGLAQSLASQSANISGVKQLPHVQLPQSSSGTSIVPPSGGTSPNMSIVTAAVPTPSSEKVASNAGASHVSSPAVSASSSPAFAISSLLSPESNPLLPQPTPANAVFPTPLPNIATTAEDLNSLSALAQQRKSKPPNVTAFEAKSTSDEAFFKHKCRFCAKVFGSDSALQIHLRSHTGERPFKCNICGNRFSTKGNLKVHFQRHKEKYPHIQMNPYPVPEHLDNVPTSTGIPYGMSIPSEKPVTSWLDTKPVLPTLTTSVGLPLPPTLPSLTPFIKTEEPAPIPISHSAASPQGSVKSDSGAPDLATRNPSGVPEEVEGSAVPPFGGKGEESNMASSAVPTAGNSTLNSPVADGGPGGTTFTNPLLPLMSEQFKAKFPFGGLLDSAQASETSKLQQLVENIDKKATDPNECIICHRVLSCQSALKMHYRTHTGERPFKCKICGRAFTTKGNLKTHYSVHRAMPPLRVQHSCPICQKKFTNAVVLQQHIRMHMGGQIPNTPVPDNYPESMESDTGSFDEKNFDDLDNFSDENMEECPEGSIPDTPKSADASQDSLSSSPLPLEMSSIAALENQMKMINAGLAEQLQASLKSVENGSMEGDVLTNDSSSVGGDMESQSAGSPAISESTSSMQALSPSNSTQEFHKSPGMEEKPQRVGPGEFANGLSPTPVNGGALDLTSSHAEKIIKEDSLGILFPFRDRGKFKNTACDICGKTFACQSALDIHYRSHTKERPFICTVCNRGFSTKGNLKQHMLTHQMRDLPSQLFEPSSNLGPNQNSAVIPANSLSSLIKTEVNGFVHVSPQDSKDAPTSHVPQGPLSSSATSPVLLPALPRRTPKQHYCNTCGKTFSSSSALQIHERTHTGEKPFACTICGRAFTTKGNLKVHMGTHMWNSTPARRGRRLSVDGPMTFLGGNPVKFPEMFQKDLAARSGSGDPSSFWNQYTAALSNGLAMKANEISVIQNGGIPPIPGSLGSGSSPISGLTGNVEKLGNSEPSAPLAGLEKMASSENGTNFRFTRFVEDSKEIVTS

[2] = target: T1, GST-Sall1 (full length); test: pull-down; remark: listed apart in the source

Binder	binding result [1]	binding result [2]
B1	binds	binds
B2	–	binds
